Experimental data taken from PMC8621939, “Cryo-EM Structure of Mechanosensitive Channel YnaI Using SMA2000: Challenges and Opportunities” (Membranes, 2021).

Biological target: the molecule itself
Assay: cryo-EM structure; single-particle cryo-EM of SMA2000-purified YnaI, Titan Krios 300 kV; 3D classification without symmetry, final refinement with C7 symmetry, 2.4 Å; NCMN Buffer E (40 mM HEPES pH 7.8, 100 mM NaCl, 0.1 mM TCEP)

B1: low-conductance mechanosensitive channel-like (YnaI), wild type (natural protein, Escherichia coli, UniProt P0AEB5 1-343, looked up)
chain: MIAELFTNNALNLVIIFGSCAALILMSFWFRRGNRKRKGFLFHAVQFLIYTIIISAVGSIINYVIENYKLKFITPGVIDFICTSLIAVILTIKLFLLINQFEKQQIKKGRDITSARIMSRIIKITIIVVLVLLYGEHFGMSLSGLLTFGGIGGLAVGMAGKDILSNFFSGIMLYFDRPFSIGDWIRSPDRNIEGTVAEIGWRITKITTFDNRPLYVPNSLFSSISVENPGRMTNRRITTTIGLRYEDAAKVGVIVEAVREMLKNHPAIDQRQTLLVYFNQFADSSLNIMVYCFTKTTVWAEWLAAQQDVYLKIIDIVQSHGADFAFPSQTLYMDNITPPEQGR
notes: YnaI, MscS-like mechanosensitive channel of Escherichia coli, 343 aa, wild type, full length; Homoheptamer in SMA2000 native lipid particles; Only TM4, TM5 and the cytoplasmic domain are resolved in the map; seven phosphatidylethanolamine molecules were modelled; Cloned in pRSFDuet-1; also called mechanosensitive-like YnaI channel; SMA2000-YnaI; source: E. coli BL21 (DE3) pLysS, extracted from …
Question: With B1 as the protein, how does the “stoichiometry N” value read?
Answer: 7
